Test results as given in PMC10841737 (Biochemistry, 2023).
Where two headings read alike, the source gives them in different places. Each block holds one binder with its values, some of them ahead of it.

Legend:
[1] = biological target: T1, Cdc13 (Saccharomyces cerevisiae, UniProt P32797 1-924); experiment: EMSA
T1 sequence: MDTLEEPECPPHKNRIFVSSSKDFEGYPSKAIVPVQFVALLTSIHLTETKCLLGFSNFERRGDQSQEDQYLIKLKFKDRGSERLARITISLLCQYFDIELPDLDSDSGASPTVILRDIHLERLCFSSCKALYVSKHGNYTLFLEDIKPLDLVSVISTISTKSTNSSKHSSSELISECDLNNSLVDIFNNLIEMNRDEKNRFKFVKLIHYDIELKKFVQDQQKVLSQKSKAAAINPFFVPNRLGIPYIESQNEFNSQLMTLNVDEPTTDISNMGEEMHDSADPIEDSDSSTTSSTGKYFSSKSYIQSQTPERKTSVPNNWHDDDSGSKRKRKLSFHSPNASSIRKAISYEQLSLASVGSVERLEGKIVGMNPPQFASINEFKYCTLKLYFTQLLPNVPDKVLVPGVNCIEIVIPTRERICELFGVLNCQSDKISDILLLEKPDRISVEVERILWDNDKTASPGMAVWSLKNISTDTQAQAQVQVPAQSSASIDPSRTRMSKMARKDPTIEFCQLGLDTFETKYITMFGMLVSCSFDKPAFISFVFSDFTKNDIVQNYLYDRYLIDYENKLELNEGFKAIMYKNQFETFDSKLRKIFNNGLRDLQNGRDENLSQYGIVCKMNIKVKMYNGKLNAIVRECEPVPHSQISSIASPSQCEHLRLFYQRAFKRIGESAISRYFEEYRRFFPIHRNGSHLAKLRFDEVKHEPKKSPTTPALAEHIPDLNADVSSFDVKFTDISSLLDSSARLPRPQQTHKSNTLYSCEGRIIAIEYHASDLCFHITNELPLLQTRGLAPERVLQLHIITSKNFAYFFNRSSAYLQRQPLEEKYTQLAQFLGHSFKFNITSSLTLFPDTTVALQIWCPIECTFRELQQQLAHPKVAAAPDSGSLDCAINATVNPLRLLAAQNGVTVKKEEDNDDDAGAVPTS

[2] = biological target: T1, Cdc13; experiment: EMSA; remark: listed apart in the source
[3] = biological target: T2, Cy5-Sub1 (Sub1-Cys) (Saccharomyces cerevisiae, UniProt P54000 1-292+=C, internal_change); experiment: stopped-flow FRET dissociation
T2 sequence: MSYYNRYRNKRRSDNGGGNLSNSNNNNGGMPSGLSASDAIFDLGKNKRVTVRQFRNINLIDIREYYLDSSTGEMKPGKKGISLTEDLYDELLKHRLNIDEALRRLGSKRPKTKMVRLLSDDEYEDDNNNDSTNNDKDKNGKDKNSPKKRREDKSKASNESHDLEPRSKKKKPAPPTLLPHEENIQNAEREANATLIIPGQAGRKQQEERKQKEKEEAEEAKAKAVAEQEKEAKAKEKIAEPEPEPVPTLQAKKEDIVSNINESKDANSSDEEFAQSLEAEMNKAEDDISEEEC

[4] = biological target: T3, S. cerevisiae Pif1 helicase (S. cerevisiae, UniProt P07271 46-859); experiment: fluorescence polarisation
T3 sequence (looked up): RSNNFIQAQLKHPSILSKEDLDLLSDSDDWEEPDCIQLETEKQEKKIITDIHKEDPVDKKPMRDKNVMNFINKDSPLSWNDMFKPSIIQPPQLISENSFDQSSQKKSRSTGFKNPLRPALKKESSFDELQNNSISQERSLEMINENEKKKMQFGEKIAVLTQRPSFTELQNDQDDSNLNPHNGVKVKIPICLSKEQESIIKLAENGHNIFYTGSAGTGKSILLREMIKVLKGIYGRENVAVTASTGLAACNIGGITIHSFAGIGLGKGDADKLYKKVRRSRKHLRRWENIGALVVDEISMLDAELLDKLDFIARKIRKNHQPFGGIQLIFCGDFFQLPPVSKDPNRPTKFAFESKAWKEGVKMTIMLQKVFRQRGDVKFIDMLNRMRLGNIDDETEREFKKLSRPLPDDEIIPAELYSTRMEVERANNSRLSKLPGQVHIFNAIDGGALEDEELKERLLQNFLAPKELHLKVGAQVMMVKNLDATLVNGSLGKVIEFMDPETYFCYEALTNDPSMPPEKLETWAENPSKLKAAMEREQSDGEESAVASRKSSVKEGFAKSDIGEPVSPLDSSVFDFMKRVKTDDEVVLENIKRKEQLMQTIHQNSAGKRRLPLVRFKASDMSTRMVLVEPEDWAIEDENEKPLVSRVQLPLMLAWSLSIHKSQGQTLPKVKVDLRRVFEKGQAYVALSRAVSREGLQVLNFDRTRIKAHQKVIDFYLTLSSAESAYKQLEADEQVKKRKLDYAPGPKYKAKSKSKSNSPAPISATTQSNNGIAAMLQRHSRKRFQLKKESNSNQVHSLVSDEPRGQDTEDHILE

[5] = biological target: T1, Cdc13; experiment: EMSA; remark: listed apart in the source
[6] = biological target: T1, Cdc13; experiment: EMSA; remark: listed apart in the source
[7] = biological target: T4, Sub1 (Saccharomyces cerevisiae, UniProt P54000 1-292); experiment: filter binding
T4 sequence: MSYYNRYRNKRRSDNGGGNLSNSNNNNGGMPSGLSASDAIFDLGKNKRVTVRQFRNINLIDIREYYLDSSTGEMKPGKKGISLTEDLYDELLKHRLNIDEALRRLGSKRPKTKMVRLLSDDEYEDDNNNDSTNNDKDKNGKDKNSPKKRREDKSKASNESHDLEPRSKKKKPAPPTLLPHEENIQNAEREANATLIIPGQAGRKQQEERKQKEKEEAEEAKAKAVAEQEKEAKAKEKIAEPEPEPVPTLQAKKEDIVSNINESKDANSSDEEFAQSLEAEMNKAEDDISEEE

[8] = biological target: T2, Cy5-Sub1 (Sub1-Cys); experiment: filter binding

Binder: CGCTGATGTCGC (ssDNA) [12 nt Mixed seq]
apparent K (half saturation) [1]: 124 ± 8.8 nM

Binder: CTGTGGGTGTG (ssDNA) [Tel11 (G1C)]
apparent K (half saturation) [2]: 150 ± 14.7 nM

Binder: TTTTTTTTTTTTTTGAGGGTGGGTAGGGTGGGT (structured_DNA) [Cy3-G4 DNA]
binding result [3]: binds

Kd [4]: 53 nM
B1: Cy5-labeled Sub1 (Sub1-Cys variant labeled with Cy5-maleimide) (natural protein, yeast (S. cerevisiae), UniProt P54000 1-292, looked up)
chain: MSYYNRYRNKRRSDNGGGNLSNSNNNNGGMPSGLSASDAIFDLGKNKRVTVRQFRNINLIDIREYYLDSSTGEMKPGKKGISLTEDLYDELLKHRLNIDEALRRLGSKRPKTKMVRLLSDDEYEDDNNNDSTNNDKDKNGKDKNSPKKRREDKSKASNESHDLEPRSKKKKPAPPTLLPHEENIQNAEREANATLIIPGQAGRKQQEERKQKEKEEAEEAKAKAVAEQEKEAKAKEKIAEPEPEPVPTLQAKKEDIVSNINESKDANSSDEEFAQSLEAEMNKAEDDISEEEC
modifications: Cy5 (maleimide) on the cysteine added at the C-terminal end; one molecule of Cy5 dye per protein

Binder: GTGTGGGTGTG (ssDNA) [Tel11 telomere seq]
apparent K (half saturation) [5]: 15.3 ± 0.9 nM

Binder: GTGTGGCTCTG (ssDNA) [Tel11 (G7C/G9C)]
apparent K (half saturation) [6]: 96.7 ± 3 nM

Binder: TTTTTTTTTTTTTTTGAGGGTGGGTAGGGTGGGTAA (structured_DNA) [G4DNA]
Kd [7]: 0.86 ± 0.18 nM | Kd [8]: 2.9 ± 1.3 nM
